One experiment addresses T1, NgR (Homo sapiens, UniProt Q9BZR6).
T1 construct: expressed in transfected cells; host or cells: COS cells
T1 sequence (Q9BZR6 27-473): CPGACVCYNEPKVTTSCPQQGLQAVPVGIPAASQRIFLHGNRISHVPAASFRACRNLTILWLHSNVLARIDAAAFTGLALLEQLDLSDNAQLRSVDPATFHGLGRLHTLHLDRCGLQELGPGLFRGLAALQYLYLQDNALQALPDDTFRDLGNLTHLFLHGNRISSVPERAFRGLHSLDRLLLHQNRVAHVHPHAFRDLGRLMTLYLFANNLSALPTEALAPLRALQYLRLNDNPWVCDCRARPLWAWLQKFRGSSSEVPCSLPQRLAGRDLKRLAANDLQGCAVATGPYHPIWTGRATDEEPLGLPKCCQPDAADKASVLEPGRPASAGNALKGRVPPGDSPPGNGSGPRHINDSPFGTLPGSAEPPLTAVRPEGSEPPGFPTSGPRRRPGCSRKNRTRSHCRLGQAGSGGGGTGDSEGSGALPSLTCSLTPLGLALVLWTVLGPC
Nature of the experiment: AP-Aβ(1-28) fusion protein binding to NgR-expressing COS cells. Conditions: not to vector-transfected COS cells. From the text:
We then investigated whether the Aβ region of APP is involved in its interaction with NgR—including whether the fibrillogenic Aβ42-3 peptide binds NgR. We created two fusion protein constructs containing alkaline phosphatase (AP) and the hydrophilic region of Aβ (amino acids 1-28) by fusing the coding sequence in frame with the signal sequence-6×His-placental alkaline phosphatase (AP) sequence of the vector pAP-6 (Nakamura et al., Neuron 2: 1093-1100, 1988). The AP-Aβ and Aβ-AP proteins both bound to NgR-expressing COS cells but not to vector-transfected COS cells. This binding was saturable with an apparent Kd of 60 nM. The interaction also was detected using purified Biotin-Aβ(1-40) in an ELISA-type assay with immobilized NgR.

The subject of a further experiment is Aβ peptides. The experiment is described as follows: Aβ peptide binding to wells coated with purified sNgR-Fc. The procedure: We analyzed whether Aβ (1-28) binding competed for NgR binding with other known ligands for NgR by allowing 250 nM soluble AP-Aβ(1-28) or AP-Nogo (1-33) to bind to wells coated with purified sNgR310-Fc in the presence of various concentrations of competing free Aβ. […] We observed that the Aβ peptides bind to both sNgR310-Fc and sNgR344-Fc. […] However, Aβ(1-28) displaced Aβ-AP binding but not AP-Nogo-66 (1-33) or AP-OMgp binding in competition assays. The Aβ peptide may begin to displace AP-MAG very slightly at high concentrations in our experiments. Thus, the Aβ binding site on NgR appears largely distinct from that for the myelin ligands NogoA, OMgp and MAG. Consistent with this, the presence of Aβ had little effect on myelin or Nogo-66 inhibition of neurite outgrowth.

Experiment [1] deals with APPsw/PSEN-1(DeltaE9) double transgenic mice. The experiment is described as follows: Intracerebroventricular infusion into APPsw/PSEN-1(DeltaE9) double transgenic mice. Type of experiment: in vivo. As to conditions: 2.5 mg per mouse over 56 days. The text has this: To examine the role of the NgR/APP/AB interactions in vivo, sNgR310-Fc (a NgR antagonist; see International Patent Application PCT/US03/25004) was infused into APPsw/PSEN-1(DeltaE9) double transgenic mice (from Jackson Laboratories). The sNgR310-Fc protein contains the entire LRR ligand-binding of the NgR fused to the Fc portion of IgG. To administer sNgR310-Fc protein, 5-month-old mice were anesthetized with isoflurane/oxygen and a burr hole was drilled in the skull. A cannula (ALZET brain infusion kit II, Alza Scientific Products, Palo Alto, Calif.) was introduced into the right lateral ventricle at stereotaxic coordinates 0.6 mm posterior and 1.2 mm lateral to bregma and 4.0 mm deep to the pial surface. The cannula was held in place with cyanoacrylate and the catheter was attached to a subcutaneous osmotic minipump (Alzet 2ML4). The pump delivered 2.5 μl/hr for 28 days of a 1.2 mg/ml solution of sNgR310-Fc or rat IgG in PBS (control mice received rat IgG since both the NgR and the Pc moiety were of rat origin). Pumps were replaced after 28 days and connected to the same cannula. The total dose of protein infused was 2.5 mg per mouse over 56 days. At the end of this period, mice were sacrificed and brain AB levels were measured using an ELISA kit from Biosource International according to the manufacturer's instructions. Aβ deposition into amyloid plaques was assessed by anti-Aβ immunohistochemistry as follows. Aβ plaques in sagittal sections of 4% paraformaldehyde fixed brain were detected immunohistologically with anti-Aβ(1-17) 6E10 antibody after 0.1 M formic acid treatment for antigen recovery. Plaque area was quantitated using NIH Image as a percentage of cerebral cortical area for 3 sections from each animal.

B1: AP-Aβ: fusion protein of alkaline phosphatase (AP) and the hydrophilic region of Aβ (amino acids 1-28) (protein)
chain: HHHHHHIIPVEEENPDFWNREAAEALGAAKKLQPAQTAAKNLIIFLGDGMGVSTVTAARILKGQKKDKLGPEIPLAMDRFPYVALSKTYNVDKHVPDSGATATAYLCGVKGNFQTIGLSAAARFNQCNTTRGNEVISVMNRAKKAGKSVGVVTTTRVQHASPAGTYAHTVNRNWYSDADVPASARQEGCQDIATQLISNMDIDVILGGGRKYMFRMGTPDPEYPDDYSQGGTRLDGKNLVQEWLAKRQGARYVWNRTELMQASLDPSVTHLMGLFEPGDMKYEIHRDSTLDPSLMEMTEAALRLLSRNPRGFFLFVEGGRIDHGHHESRAYRALTETIMFDDAIERAGQLTSEEDTLSLVTADHSHVFSFGGYPLRGSSIFGLAPGKARDRKAYTVLLYGNGPGYVLKDGARPDVTESESGSPEYRQQSAVPLDEETHAGEDVAVFARGPQAHLVHGVQEQTFIAHVMAFAACLEPYTACDLAPPAGTTDAAHPGDAEFRHDSGYEVHHQKLVFFAEDVGSNK
In the case of B1, the “binding to NgR-expressing COS cells” value in the experiment with NgR is “bound”.

B2: sNgR310-Fc: contains the entire LRR ligand-binding of the NgR fused to the Fc portion of IgG; NgR and Fc of rat origin (protein)
chain: CPGACVCYNEPKVTTSRPQQGLQAVPAGIPASSQRIFLHGNRISYVPAASFQSCRNLTILWLHSNALAGIDAAAFTGLTLLEQLDLSDNAQLRVVDPTTFRGLGHLHTLHLDRCGLQELGPGLFRGLAALQYLYLQDNNLQALPDNTFRDLGNLTHLFLHGNRIPSVPEHAFRGLHSLDRLLLHQNHVARVHPHAFRDLGRLMTLYLFANNLSMLPAEVLVPLRSLQYLRLNDNPWVCDCRARPLWAWLQKFRGSSSGVPSNLPQRLAGRDLKRLATSDLEGCA
modifications: left off: a dimerising Fc or GST
notes: NgR and Fc of rat origin
As for B2, the “binding of Aβ peptides” value in the experiment with Aβ peptides is recorded as “bind”. Moreover, the “deposition of immunoreactive Aβ into plaque” value in experiment [1] (right lateral ventricle, vs rat IgG, anti-Aβ immunohistochemistry) is given as “significantly reduced”. Also, in experiment [1] (right lateral ventricle, ELISA), the “decrease of total level of Aβ(1-40) in the brain” value is reported as 50% and the “decrease of total level of Aβ(1-42) in the brain” value was determined as 50%. Also, the “sAPPα levels in the brains” value in experiment [1] (immunoprecipitation and immunoblot) is “decreased”.

B3: sNgR344-Fc: rat soluble NgR 344 Fc fusion (protein)
chain: CPGACVCYNEPKVTTSRPQQGLQAVPAGIPASSQRIFLHGNRISYVPAASFQSCRNLTILWLHSNALAGIDAAAFTGLTLLEQLDLSDNAQLRVVDPTTFRGLGHLHTLHLDRCGLQELGPGLFRGLAALQYLYLQDNNLQALPDNTFRDLGNLTHLFLHGNRIPSVPEHAFRGLHSLDRLLLHQNHVARVHPHAFRDLGRLMTLYLFANNLSMLPAEVLVPLRSLQYLRLNDNPWVCDCRARPLWAWLQKFRGSSSGVPSNLPQRLAGRDLKRLATSDLEGCAVASGPFRPFQTNQLTDEELLGLPKCCQPDAADKA
modifications: left off: a dimerising Fc or GST
notes: rat soluble NgR 344 Fc fusion
For B3, in the experiment on Aβ peptides, the “binding of Aβ peptides” value is “bind”.

(Values after US20070065429A1, “Nogo-receptor antagonists for the treatment of conditions involving amyloid plaques” (Biogen Idec MA Inc., priority 2003, published 2007).)
